Reference: PMC10682436

Assays:
[1] = molecular target: OVOL2 C120Y C120Y (Mus musculus) (UniProt Q8CIV7); assay: EMSA; conditions: 1 nM probe; 53 ng or 1.7 ug protein; severely impaired; EMSA: 1 nM 5'-biotin DNA probe, room temperature, 30 min (1 h for Fig. 7E), LightShift Chemiluminescent EMSA Kit; specific competitor 4.5 uM where used …
OVOL2 WT (Mus musculus) = OVOL2 WT (Mus musculus) (UniProt Q8CIV7); assay: EMSA; conditions: 1 nM probe; 53 ng protein; EMSA: 1 nM 5'-biotin DNA probe, room temperature, 30 min (1 h for Fig. 7E), LightShift Chemiluminescent EMSA Kit; specific competitor 4.5 uM where used …

Sequence: AACCGTTACC (double strand) [OVOL2 probe]
- binding signal (relative to WT = 128) [1]: 1
- binding signal (fold (WT:C120Y DNA binding ability)) (OVOL2 WT (Mus musculus)): 128
